Laboratory results reported in patent publication US20150337031A1 (CELYAD S A, published 2015).

Assays:
[1] = target: T1, Mutated peptide on Aa H (10th position); assay: indirect ELISA on coated peptide, antibody at 0.5 µg/ml, OD450
T1 peptide: GNPNLLPLAAPSL
Protocol: (§1) ELISA was performed to map the epitope of the test antibody. The peptides were coated in 96-well microtiter plates at 4° C. for 16 h. The plates were then blocked with 5% MPBS at 37° C. for 2 h. After washed with PBS-T, 100 μl target/control antibody (0.5 μg/ml) was added and incubated at 37° C. for 2 h. The plates were washed with PBS-T and incubated with 100 μl of 0.1 μg/ml goat anti-mouse IgG (H+L) at 37° C. for 1 h. The plates were washed with PBS-T and incubated with rabbit anti goat IgG (H+L) [HRP] at 37° C. for 1 h. After washing the plate with PBS-T, the color was developed with 100 μl TMB substrate for 10 minutes. The reaction was stopped by adding 100 μl of 1 M HCl and the absorbance was measured at 450 nm using a spectrometer. […] A non-coated well was set as blank control and the peptide library incubated with the detection antibodies only was set as the negative control.
(§2) Thirteen mutant peptides were numbered in numerical order and their binding activity with target/control antibodies were determined by indirect ELISA. The non-specific binding between the peptide, the target antibody and rabbit anti-goat IgG [HRP] was determined. The non-specific binding between the peptide, goat anti-mouse IgG and rabbit anti-goat IgG [HRP] was determined as well.

[2] = target: T2, Mutated peptide on Aa L (13th position); assay: as above
T2 peptide: GNPNLLPLAHPSA
Protocol: as §1, §2

[3] = target: T3, Mutated peptide on Aa P (11th position); assay: as above
T3 peptide: GNPNLLPLAHASL
Protocol: as §1, §2

[4] = target: T4, alanine scanning mutant of the MEF2C peptide of SEQ ID NO: 2, leucine at position 5 replaced by alanine (human); assay: direct ELISA, relative quantification against a wild-type peptide standard curve (FIG. 8)
T4 construct: Member of the alanine scanning peptide library; also called mutation at peptide position 5
T4 peptide: GNPNALPLAHPSL
Protocol: as §1
(§3) In addition to the alanine scanning, a relative quantification of binding was performed. Each of the mutated peptides was assayed in direct ELISA according to the procedures described above and compared to a standard curve performed with the wild-type peptide. Relative binding quantification was then performed as described previously. […] Therefore, considering the combination of the data obtained in FIGS. 7 and 8 an epitope target of the anti-MEF2C mAb is the following amino acid sequence: […]

[5] = target: T5, alanine scanning mutant of the MEF2C peptide of SEQ ID NO: 2, asparagine at position 2 replaced by alanine (human); assay: as above
T5 construct: Member of the alanine scanning peptide library; also called mutation at peptide position 2
T5 peptide: GAPNLLPLAHPSL
Protocol: as §1, §3

[6] = target: T6, alanine scanning mutant of the MEF2C peptide of SEQ ID NO: 2, proline at position 7 replaced by alanine (human); assay: as above
T6 construct: Member of the alanine scanning peptide library; also called mutation of the seventh residue; P7
T6 peptide: GNPNLLALAHPSL
Protocol: as §1, §3

[7] = target: T7, alanine scanning mutant of the MEF2C peptide of SEQ ID NO: 2, glycine at position 1 replaced by alanine (human); assay: as above
T7 construct: Member of the alanine scanning peptide library synthesised by GenScript; also called mutation of the first residue; G1
T7 peptide: ANPNLLPLAHPSL
Protocol: as §1, §3

[8] = target: T8, alanine scanning mutant of the MEF2C peptide of SEQ ID NO: 2, proline at position 3 replaced by alanine (human); assay: as above
T8 construct: Member of the alanine scanning peptide library; also called mutation at peptide position 3
T8 peptide: GNANLLPLAHPSL
Protocol: as §1, §3

[9] = target: T9, alanine scanning mutant of the MEF2C peptide of SEQ ID NO: 2, asparagine at position 4 replaced by alanine (human); assay: as above
T9 construct: Member of the alanine scanning peptide library; also called mutation at peptide position 4
T9 peptide: GNPALLPLAHPSL
Protocol: as §1, §3

[10] = target: T10, 13 amino acid sequence from human MEF2C (SEQ ID NO: 2), GNPNLLPLAHPSL (human); assay: SPR, BIAcore T200, antibody coupled to CM5 chip, peptide injected, 1:1 model
T10 construct: Synthetic peptide (GenScript); Coated on the plate in ELISA, injected over the immobilised antibody in Biacore; also called wild-type peptide; antigen peptide
T10 peptide: GNPNLLPLAHPSL
Protocol: (§4) Affinity of the antibody for the peptide was measured by using BIAcoreT200. After covalent coupling of the antibody onto the Series S Sensor Chip CM5, different concentrations (0.078, 0.781, 1.563, 3.125 and 6.250 μM) of peptide were injected serially over the antibody and blank flow cell at a flow rate of 30 μl/min. Association and dissociation phases were monitored for 30 and 150 seconds, respectively. Peptide with the concentration of 6.250 μM was set as repetition. The antibody surface was regenerated with 10 mM Glycine-HCl, pH2.0, 30 s injections 1 time.
(§5) About 10000 RU of antibody was immobilized on the sensor chip via primary amine groups. Binding data was processed, double referenced with response from blank injections, and fit to a 1:1 interaction model using the BIAcore T200 evaluation software.

[11] = target: T10, 13 amino acid sequence from human MEF2C …; assay: SPR, BIAcore T200, calculated as the inverse of Kd
Protocol: as §4, §5

[12] = target: T4, alanine scanning mutant of the MEF2C …; assay: indirect ELISA on coated alanine mutant peptides (FIG. 7)
Protocol: as §1, §2

[13] = target: T5, alanine scanning mutant of the MEF2C …; assay: as above
Protocol: as §1, §2

[14] = target: T8, alanine scanning mutant of the MEF2C …; assay: as above
Protocol: as §1, §2

[15] = target: T9, alanine scanning mutant of the MEF2C …; assay: as above
Protocol: as §1, §2

[16] = target: T11, Mutated peptide on Aa L (8th position); assay: ELISA on coated mutant peptide, relative quantification against a standard curve of the wild-type peptide
T11 peptide: GNPNLLPAAHPSL
Protocol: as §1, §3

[17] = target: T12, Mutated peptide on Aa L (6th position); assay: as above
T12 peptide: GNPNLAPLAHPSL
Protocol: as §1, §3

- binding result [1]: binds
- binding result [2]: binds
- binding result [3]: binds
- decrease of the binding relative to the wild-type peptide [4]: > 99%
- decrease of the binding relative to the wild-type peptide [5]: > 99%
- loss of binding relative to the wild-type peptide [6]: 96.4%
- loss of binding relative to the wild-type peptide [7]: 92.9%
- decrease of the binding relative to the wild-type peptide [8]: > 99%
- decrease of the binding relative to the wild-type peptide [9]: > 99%
- Kd [10]: 157 nM
- koff [10]: 0.00367 s⁻¹
- kon [10]: 23400 M⁻¹ s⁻¹
- Ka [11]: 6.37e+06 M⁻¹
- binding result [12]: no binding (tested: 0.5 µg/ml antibody)
- binding result [13]: no binding (tested: 0.5 µg/ml antibody)
- binding result [14]: no binding (tested: 0.5 µg/ml antibody)
- binding result [15]: no binding (tested: 0.5 µg/ml antibody)
- binding result [16]: binds
- binding result [17]: binds
B1: anti-MEF2C monoclonal antibody produced by the hybridoma cell line deposited with BCCM/LMBP under Accession No. LMBP 9949CB (antibody, V domains shown)
VH: EVQLQQSGPELVKPGASVKISCKASAYSFTGYFMNWVKQSHGKSLEWIGRINPYNGNTFYNQNFKGKATLTVDRSSSTAHMQILSLTSEDSTVYYCGREGATGAMDYWGQGTSVTVLP
VL: DVVMTQTPLSLPVSLGDQASISCRSSQSLVHSNGDTYLHWYLQMPGQSPRLLIYKVSNRFSGVPDRFSGSGSGTDFTLKISRVEAEDLGVYFCSQSTHVPPTFGGGTKLEIK
notes: IgG from a mouse hybridoma (detected with anti-mouse IgG); also called anti-MEF2C mAb; α MEF2C
